For this experiment, the target named is T1, human ALK7-Fc comprising protein (human, UniProt Q8NER5 22-113, limits assumed).
T1 construct: The wording 'ALK7-Fc comprising protein' leaves open whether further chains are present; also called human ALK7-Fe comprising protein; not shown: Fc portion
T1 sequence: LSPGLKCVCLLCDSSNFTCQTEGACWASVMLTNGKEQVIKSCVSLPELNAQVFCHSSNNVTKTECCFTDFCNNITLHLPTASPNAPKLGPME
In words: SPR (Biacore T100/T200); antibody captured on FAB chip, ALK7-Fc comprising protein as analyte; 1:1 fit. Here is the method: Experiments were performed using a Biacore T100/T200 biosensor (Biacore/GE Healthcare) at 25 and 37° C. ALK7 antibodies were captured on custom made FAB chip. A concentration series of ALK7-Fc comprising protein was injected over the flow cells at a flow rate of […]. To obtain kinetic rate constants the corrected data were fit to a 1:1 interaction model using BiaEvaluation software (GE Healthcare). The equilibrium binding constant KD was determined by the ratio of binding rate constants kd/ka.
(SPR reads the build-up and loss of mass on a sensor chip optically.)

B1: L01 (antibody, V domains shown)
VH: QVQLVQSGAEVKKPGSSVKVSCKASGGTFSSYAISWVRQAPGQGLEWMGSIIPIFGTANYAQKFQGRVTITADESTSTAYMELSSLRSEDTAVYYCARDPVGARYEVFDYWGQGTLVTVSS
VL: EIVMTQSPATLSVSPGERATLSCRASQSVSSNLAWYQQKPGQAPRLLIYSASTRATGIPARFSGSGSGTEFTLTISSLQSEDFAVYYCQQANTFPLTFGGGTKVEIK
notes: Human IgG from yeast libraries; also called LOL
Usually koff stands for a measure of how fast the partners let go of each other. The low end stands for a long-lived complex, the high end for a short-lived complex. As to B1, the koff came to 0.000367 s⁻¹.
